Assay results from patent US9327008B2, “Cell-permeant peptide-based inhibitor of kinases” (Purdue Research Foundation, priority 2008, dated 2016).

Assays:
[1] = tested on: IL-6 expression in triple culture of neurons, astrocytes and microglia; settings: 1 mM or 3 mM MK2i with TNF-α 5 or 10 ng/ml
Method: The inhibitory effect of therapeutic inhibitor protein having amino acid sequence [sequence] [SEQ ID NO: 11] on IL-6 production was studied in a triple culture consisting of neurons, astrocytes and microglia. […] The E18 cells were plated (1×10^6 cells/ml) to support differentiation into neurons, astrocytes and microglia. […] The positive control comprised treating the cells with TNF-α (either 5 ng/ml or 10 ng/ml); as a negative control, the cells were exposed to cell media without any treatment. […] Cytokines with or without therapeutic inhibitor peptide were always added simultaneously in this media formulation.

AMPK = experiment: Millipore radiometric kinase activity assay, AMPK (r); format: biochemical; settings: rat AMPK
Method: (§1) A commercial radiometric assay service (Millipore, Billerica, Mass.) was used to test the specificity and potency of peptides containing a coupled transduction domain and therapeutic domain, hereinafter “complete peptides”). In these assays, if the kinase is not inhibited by an inhibitor peptide, a positively charged substrate is phosphorylated with a radiolabeled phosphate group from an ATP.
In a final reaction volume of 25 AMPK (r) (5-10 mU) is incubated with 32 mM HEPES pH 7.4, 0.65 mM DTT, 0.012% Brij-35, 200 μM AMP, 200 μM […] [SEQ ID NO: 49], 10 mM MgAcetate and [γ-^33P-ATP] (specific activity approx. 500 cpm/pmol, concentration as required). The reaction is initiated by the addition of the MgATP mix. After incubation for 40 minutes at room temperature, the reaction is stopped by the addition of 5 μL of a 3% phosphoric acid solution. 10 μL of the reaction is then spotted onto a P30 filtermat and washed three times for 5 minutes in 75 mM phosphoric acid and once in methanol prior to drying and scintillation counting.
(§2) IC50 values for inhibitor peptides were determined using Millipore's IC50Profiler Express service. The IC50 value was estimated from a 10-point curve of one-half log dilutions. For peptides tested for specificity, the concentration of the peptides that inhibited approximately 95% of MK2 activity was chosen to profile against a battery of kinases related to MK2, cell viability, or human disease from MilliporeKinaseProfiler service. In both assays, compounds were supplied in dimethylsulfoxide (DMSO). Every kinase activity measurement was conducted in duplicate.
(§3) Therapeutic inhibitor peptides were assayed for activity against human kinases related to MK2, cell viability, or human disease. The assays were performed using concentrations of therapeutic inhibitor peptides that yielded 2% to 8% of normal MK2 activity. Error is reported as the standard deviation between 2 samples, and “c” is rat AMPK whereas all other kinases used are human kinases.

CDK1/cyclinB = molecular target: T1, CDK1/cyclinB (Homo sapiens, UniProt P06493); experiment: Millipore radiometric kinase activity assay, CDK1/cyclinB (h); format: biochemical
T1 construct: purchased Millipore (assay service)
T1 sequence (P06493 whole entry): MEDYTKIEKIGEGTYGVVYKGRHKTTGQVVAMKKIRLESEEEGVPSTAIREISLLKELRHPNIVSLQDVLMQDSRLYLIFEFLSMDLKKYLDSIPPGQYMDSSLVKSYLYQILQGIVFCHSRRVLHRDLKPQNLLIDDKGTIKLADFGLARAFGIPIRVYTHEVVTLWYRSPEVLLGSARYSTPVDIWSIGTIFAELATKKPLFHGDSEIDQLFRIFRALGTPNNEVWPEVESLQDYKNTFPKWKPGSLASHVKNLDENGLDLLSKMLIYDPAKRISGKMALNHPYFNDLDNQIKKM
T1 sequence (P14635 whole entry partner): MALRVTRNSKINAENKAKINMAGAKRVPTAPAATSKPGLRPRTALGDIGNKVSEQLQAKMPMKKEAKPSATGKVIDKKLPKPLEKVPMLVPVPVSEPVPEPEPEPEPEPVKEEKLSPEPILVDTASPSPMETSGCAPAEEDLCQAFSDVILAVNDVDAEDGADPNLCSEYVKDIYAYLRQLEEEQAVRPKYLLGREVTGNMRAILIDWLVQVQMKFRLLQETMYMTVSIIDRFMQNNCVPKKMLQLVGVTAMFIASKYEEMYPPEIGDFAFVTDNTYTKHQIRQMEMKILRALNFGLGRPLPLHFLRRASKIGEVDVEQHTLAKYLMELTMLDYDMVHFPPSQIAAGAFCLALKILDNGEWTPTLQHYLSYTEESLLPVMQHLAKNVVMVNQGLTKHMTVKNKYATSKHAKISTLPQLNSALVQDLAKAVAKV
Method: as §1
(§4) In a final reaction volume of 25 μL, CDK1/cyclinB (h) (5-10 mU) is incubated with 8 mM MOPS pH 7.0, 0.2 mM EDTA, 0.1 mg/mL histone H1, 10 mM MgAcetate and [γ-^33P-ATP] (specific activity approx. 500 cpm/pmol, concentration as required). The reaction is initiated by the addition of the MgATP mix. After incubation for 40 minutes at room temperature, the reaction is stopped by the addition of 5 μL of a 3% phosphoric acid solution. 10 μL of the reaction is then spotted onto a P30 filtermat and washed three times for 5 minutes in 75 mM phosphoric acid and once in methanol prior to drying and scintillation counting.
as §2, §3

Flt3 = molecular target: T2, Flt3 (Homo sapiens, UniProt P36888); experiment: Millipore radiometric kinase activity assay, Flt3 (h); format: biochemical
T2 construct: purchased Millipore (assay service)
T2 sequence (P36888 27-993): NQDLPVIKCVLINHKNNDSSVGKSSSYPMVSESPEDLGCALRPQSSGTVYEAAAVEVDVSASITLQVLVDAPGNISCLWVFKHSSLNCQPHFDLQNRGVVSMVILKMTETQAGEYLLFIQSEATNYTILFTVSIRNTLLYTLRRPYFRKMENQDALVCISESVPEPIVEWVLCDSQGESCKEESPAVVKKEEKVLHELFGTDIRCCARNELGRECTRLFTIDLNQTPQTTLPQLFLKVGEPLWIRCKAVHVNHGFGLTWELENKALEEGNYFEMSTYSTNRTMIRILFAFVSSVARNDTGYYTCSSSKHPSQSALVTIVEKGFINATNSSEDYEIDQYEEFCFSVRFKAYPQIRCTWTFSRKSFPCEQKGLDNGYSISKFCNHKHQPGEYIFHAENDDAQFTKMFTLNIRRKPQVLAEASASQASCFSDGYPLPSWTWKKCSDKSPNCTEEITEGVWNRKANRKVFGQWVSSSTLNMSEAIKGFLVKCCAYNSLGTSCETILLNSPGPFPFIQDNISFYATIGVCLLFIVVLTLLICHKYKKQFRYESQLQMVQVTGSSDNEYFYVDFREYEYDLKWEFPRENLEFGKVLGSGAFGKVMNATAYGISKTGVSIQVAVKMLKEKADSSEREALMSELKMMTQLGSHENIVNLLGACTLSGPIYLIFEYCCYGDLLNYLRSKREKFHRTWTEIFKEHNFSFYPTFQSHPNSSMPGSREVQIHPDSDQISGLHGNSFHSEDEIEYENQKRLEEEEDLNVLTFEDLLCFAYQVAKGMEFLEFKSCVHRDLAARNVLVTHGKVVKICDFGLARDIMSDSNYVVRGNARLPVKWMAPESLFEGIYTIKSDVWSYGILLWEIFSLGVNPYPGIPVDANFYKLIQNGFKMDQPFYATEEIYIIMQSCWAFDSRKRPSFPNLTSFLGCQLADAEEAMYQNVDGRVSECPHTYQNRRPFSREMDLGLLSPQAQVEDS
Method: as §1
as §4, with “Flt3” for “CDK1/cyclinB”, “50 μM […] [SEQ ID NO: 48],” for “0.1 mg/mL histone H1,”
as §2, §3

IGF-1R = molecular target: T3, IGF-1R (Homo sapiens, UniProt P08069); experiment: Millipore radiometric kinase activity assay, IGF-1R (h); format: biochemical
T3 construct: purchased Millipore (assay service)
T3 sequence (P08069 31-1367): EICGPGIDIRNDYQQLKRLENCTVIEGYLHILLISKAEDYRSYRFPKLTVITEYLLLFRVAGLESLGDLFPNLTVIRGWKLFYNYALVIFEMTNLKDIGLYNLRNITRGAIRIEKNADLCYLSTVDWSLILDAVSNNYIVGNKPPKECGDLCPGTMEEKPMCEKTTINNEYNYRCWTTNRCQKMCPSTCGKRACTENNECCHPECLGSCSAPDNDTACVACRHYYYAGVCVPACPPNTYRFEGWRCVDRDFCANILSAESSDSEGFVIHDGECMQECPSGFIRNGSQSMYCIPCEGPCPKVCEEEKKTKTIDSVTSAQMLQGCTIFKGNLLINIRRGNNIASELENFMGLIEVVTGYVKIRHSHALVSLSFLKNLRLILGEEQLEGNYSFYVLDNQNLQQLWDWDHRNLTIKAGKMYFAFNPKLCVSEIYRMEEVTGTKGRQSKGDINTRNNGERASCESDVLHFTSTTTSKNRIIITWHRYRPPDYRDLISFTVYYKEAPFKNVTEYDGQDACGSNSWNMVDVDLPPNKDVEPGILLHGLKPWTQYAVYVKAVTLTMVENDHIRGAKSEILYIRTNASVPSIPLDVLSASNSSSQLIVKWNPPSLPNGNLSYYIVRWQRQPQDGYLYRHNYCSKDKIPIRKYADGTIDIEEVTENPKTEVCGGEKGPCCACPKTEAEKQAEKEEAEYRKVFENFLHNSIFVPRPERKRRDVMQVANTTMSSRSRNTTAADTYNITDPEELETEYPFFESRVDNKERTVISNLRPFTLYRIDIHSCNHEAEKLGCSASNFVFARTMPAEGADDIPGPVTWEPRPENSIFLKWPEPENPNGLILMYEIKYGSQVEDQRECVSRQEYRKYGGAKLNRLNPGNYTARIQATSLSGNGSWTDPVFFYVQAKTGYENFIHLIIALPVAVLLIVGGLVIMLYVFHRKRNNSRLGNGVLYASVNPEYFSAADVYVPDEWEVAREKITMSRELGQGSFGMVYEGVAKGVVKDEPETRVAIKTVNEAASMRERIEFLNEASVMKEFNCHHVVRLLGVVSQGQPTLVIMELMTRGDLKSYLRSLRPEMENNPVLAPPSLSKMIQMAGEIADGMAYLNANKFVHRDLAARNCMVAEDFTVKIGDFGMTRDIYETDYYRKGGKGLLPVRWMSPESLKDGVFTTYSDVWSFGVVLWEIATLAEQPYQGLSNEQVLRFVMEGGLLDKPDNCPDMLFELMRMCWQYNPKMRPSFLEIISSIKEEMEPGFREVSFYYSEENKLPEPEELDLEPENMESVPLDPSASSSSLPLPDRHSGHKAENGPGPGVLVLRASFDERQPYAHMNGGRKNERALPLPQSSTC
Method: as §1
as §4, with “IGF-1 R” for “CDK1/cyclinB”, “50” for “8”, “Tris” for “MOPS”, “7.5, 0.1” for “7.0, 0.2”, “EGTA,” for “EDTA,”, “mM Na3VO4, 0.1% β-mercaptoethanol, 250 μM […] [SEQ ID NO: 56], 10 mM MnCl2,” for “mg/mL histone H1,”
as §2, §3

Sequence | level of expression of IL-6 (FIG. 11) [1] | AMPK Kinase Activity (%) (+SD %) (AMPK; peptide 30 μM) | AMPK Kinase Activity (%) (+SD %) (AMPK; peptide 100 μM) | CDK1/cyclin B Kinase Activity (%) (+SD %) (CDK1/cyclinB; peptide 30 μM) | CDK1/cyclin B Kinase Activity (%) (+SD %) (CDK1/cyclinB; peptide 100 μM) | Flt3 Kinase Activity (%) (+SD %) (Flt3; peptide 30 μM) | Flt3 Kinase Activity (%) (+SD %) (Flt3; peptide 100 μM) | IGF-1R Kinase Activity (%) (+SD %) (IGF-1R; peptide 30 μM) | IGF-1R Kinase Activity (%) (+SD %) (IGF-1R; peptide 100 μM)
YARAAARQARAKALARQLGVAA | reduced levels of expression of IL-6 | – | – | – | – | – | – | – | –
WLRRIKAWLRRIKALNRQLGVAA | – | 36 (4) % | 101 (6) % | 17 (0) % | 36 (2) % | 38 (1) % | 14 (0) % | 227 (12) % | 69 (4) %
KAFAKLAARLYRKALARQLGVAA | – | – | 118 (7) % | – | 55 (3) % | – | 20 (3) % | – | 76 (12) %
